# B1: Ataxin-1 (Homo sapiens), P54253 (parent)
# chain: MKSNQERSNECLPPKKREIPATSRSSEEKAPTLPSDNHRVEGTAWLPGNPGGRGHGGGRHGPAGTSVELGLQQGIGLHKALSTGLDYSPPSAPRSVPVATTLPAAYATPQPGTPVSPVQYAHLPHTFQFIGSSQYSGTYASFIPSQLIPPTANPVTSAVASAAGATTPSQRSQLEAYSTLLANMGSLSQTPGHKAEQQQQQQQQQQQQHQHQQQQQQQQQQQQQQHLSRAPGLITPGSPPPAQQNQYVHISSSPQNTGRTASPPAIPVHLHPHQTMIPHTLTLGPPSQVVMQYADSGSHFVPREATKKAESSRLQQAIQAKEVLNGEMEKSRRYGAPSSADLGLGKAGGKSVPHPYESRHVVVHPSPSDYSSRDPSGVRASVMVLPNSNTPAADLEVQQATHREASPSTLNDKSGLHLGKPGHRSYALSPHTVIQTTHSASEPLPVGLPATAFYAGTQPPVIGYLSGQQQAITYAGSLPQHLVIPGTQPLLIPVGSTDMEASGAAPAIVTSSPQFAAVPHTFVTTALPKSENFNPEALVTQAAYPAMVQAQIHLPVVQSVASPAAAPPTLPPYFMKGSIIQLANGELKKVEDLKTEDFIQSAEISNDLKIDSSTVERIEDSHSPGVAVIQFAVGEHRAQVSVEVLVEYPFFVFGQGWSSCCPERTSQLFDLPCSKLSVGDVCISLTLKNLKNGSVKKGQPVDPASVLLKHSKADGLAGSRHRYAEQENGINQGSAQMLSENGELKFPEKMGLPAAPFLTKIEPSKPAATRKRRWSAPESRKLEKSEDEPPLTLPKPSLIPQEVKICIEGRSNVGK
# partner: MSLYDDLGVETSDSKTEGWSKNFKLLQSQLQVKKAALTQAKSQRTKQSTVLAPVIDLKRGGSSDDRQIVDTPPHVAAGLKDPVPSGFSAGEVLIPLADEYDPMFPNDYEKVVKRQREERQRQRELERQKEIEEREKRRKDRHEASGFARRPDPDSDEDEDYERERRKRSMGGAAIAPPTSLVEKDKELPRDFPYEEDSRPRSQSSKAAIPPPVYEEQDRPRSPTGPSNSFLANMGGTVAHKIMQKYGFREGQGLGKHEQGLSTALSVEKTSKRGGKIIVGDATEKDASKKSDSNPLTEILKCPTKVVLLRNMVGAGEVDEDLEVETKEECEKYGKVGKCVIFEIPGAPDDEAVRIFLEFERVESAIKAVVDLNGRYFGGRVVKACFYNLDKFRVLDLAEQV
# Variants of: B1
# Conditions: with spf45_human RBM17, Q96I25
row,effect of a mutation on the interaction,Variant
1,disrupting interaction strength,S775A

# From IntAct's records for PubMed 18337722
